Experimental data from patent US20220174981A1, “PROLINE TOLERANT TRIPEPTIDYL PEPTIDASES AND USES THEREOF” (DuPont Nutrition Biosciences APS, priority 2014, published 2022).
Several values for one entry are separate records, joined by “and”; a condition that tells them apart may be missing. Equal values may be shown once.

Tests used:
[1] = target: proline tolerant tripeptidyl peptidase (TRI083); assay: Product inhibition of TRI083 (Ala-Ala-Ala-pNA substrate); assay type: biochemical, T. reesei; settings: treated as competitive inhibitors
Description: For proline tolerant tripeptidyl peptidase the chromogenic peptide H-Ala-Ala-Ala-pNA was used. The assay was conducted as follows, 27.5 μL of appropriately diluted enzyme was added to 200 μl McIlvaine buffer (20 mM, pH 4.0). After incubation at 50° C. for 5 min, 12.5 μL of the chromogenic peptide solution (5 mg/mL dissolved in dimethyl sulfoxide (DMSO); Sigma-Aldrich, Denmark) were added to the reaction mixture. The reaction was terminated by adding 50 μL of 0.5 M trichloroacetic acid (TCA; Sigma-Aldrich, Denmark). After centrifugation (15,000×g, 5 min), 240 μL of the solution were transferred to a microtiter plate (MTP; Kisker-biotech, Germany) and the absorption was measured in an MTP reader (Molecular Devices, Denmark) at 405 nm. One katal of proteolytic activity was defined as the amount of enzyme required to release 1 mol of p-nitroaniline per second.
Inhibition experiments were conducted with TRI083 and Ala-Ala-Ala-pNA ([…]) as substrate in the assay described in Example 8. The assay was run without inhibitor, with 3.6 mM tripeptide (H-Ala-Ala-Ala-OH; Bachem, Switzerland), 18 mM dipeptide (H-Ala-Ala-OH; Bachem, Switzerland) or 18 mM alanine (Sigma-Aldrich, Denmark). […]
Subsequently, TRI083 was analyzed for product inhibition without inhibitor, with 1 mg/mL H-Ala-Ala-Ala-OH as well with the PepN pre-hydrolyzed H-Ala-Ala-Ala-OH (1 mg/mL).

H-Ala-Ala-Phe-pNA = assay: Low pH stability of tripeptidyl peptidases (pH 2.5, 40° C., 60 min), activity on H-Ala-Ala-Phe-pNA; assay type: biochemical; settings: for OD410nm (Final): after pH 2.5, 40° C., 60 min; for OD410nm (Initial): without incubation at 40° C. for 60 min
Description: As requirements for utilization of the enzymes in feed for monogastric animals, the enzymes should be active at lower pH. For this reason the number of tripeptidyl peptidases has been tested with the reaction on synthetic substrate AAF (H-Ala-Ala-Phe-pNA. BACHEM, L-1095), at pH 2.5.
The tripeptide substrate AAF was prepared at 2.5 mg/ml in DMSO. Tripeptidyl peptidases were used as broth. The reaction mixture containing 2.5 μl enzyme and 90 μL glycine acetic acid-Tris buffer (each buffer components at 50 mM, pH 2.5) was prepared in 96 well incubation plates.
The incubation plate was mixed and incubated at 40° C. for 60 min. Then 50 μl 0.2M Mes-NaOH pH6.0 was added to each well, mixed at 600 rpm for 2 min. After that, 5 ul of the incubation mixture were taken to 96 well assay plate already filled with 85 μl 0.1M acetic acid buffer, pH4.0 and 5 μl 2.5 mg/ml AAF substrate solution.
The reaction mixture was stirred at 600 rpm for 2 min and read directly in a microplate reader (Molecular Devices, Denmark) at 410 nm at 30° C. every 30 second for 15 min.
To measure initial enzyme activity, similar procedure was performed except the step of enzyme incubation at 40° C. for 60 min.

[2] = system: whey protein isolate (WPI); assay: 15% WPI hydrolysis with endopeptidase and proline tolerant tripeptidyl peptidase homologues; assay type: biochemical; settings: after 7 h of hydrolysis, compared to the reference (endopeptidase); FIG. 14
Description: For WPI hydrolysis, Lacprodan-9224 (Arla Food Ingredients, Denmark) was employed, a 15% (w/w) WPI suspension was prepared in H2Od and adjusted to pH 4.5 with acetic acid (Sigma-Aldrich, Denmark). To prevent microbial growth, 0.0285% (w/w) NaN3 was added. Subsequently, 1% (w/w) Alphalase® FP2 was added and a volume of 200 μl of the WPI suspension was transferred into each of the 96 wells of a microtiter plate (MTP; VWR, Denmark). Following this, 5 μl of each proline tolerant tripeptidyl peptidase homologue containing either 0 or 4375nkatH-Ala-Ala-Ala-pNA/mL were added to the particular wells of the MTP. Then, the MTP was sealed and placed in an incubator at 40° C. (iEMS incubator/shaker HT, Thermo Scientific, Denmark).
[…] Unhydrolyzed, precipitated WPI was removed by filtration (0.22 μm; Corning 3504 filter plate, Corning Incorporated, USA). The filtered WPI hydrolysate was employed for o-phthaldehyde (OPA) derivatization (Nielsen, Petersen et al. 2001). The OPA derivatization was conducted according to Nielsen et al., (2001) with minor modifications. A sample volume of 25 μl was transferred to a well and 175 μl of OPA-reagent, dissolved in trisodium phosphate-dodecahydrate, was added subsequently. The measured absorptions at 340 nm in a MTP reader (VersaMax, Molecular Devices, Denmark) were transformed into serine equivalents employing a serine calibration curve (0-2 mM).

[3] = listed as TRI071 (pool1) 2% glu/soph
[4] = listed as TRI071 (pool1) 4% glu/soph

Row | Molecule | Ki [1] | OD410nm (Final) (H-Ala-Ala-Phe-pNA; [3]) | OD410nm (Final) (H-Ala-Ala-Phe-pNA; [4]) | OD410nm (Initial) (H-Ala-Ala-Phe-pNA; [3]) | OD410nm (Initial) (H-Ala-Ala-Phe-pNA; [4]) | relative increase of SE [2]
1 | C[C@H](N)C(=O)O [Alanine, alanine] | no inhibition at all | – | – | – | – | –
2 | TRI071: Proline tolerant tripeptidyl peptidase TRI071 (SEQ ID No. 12 or SEQ ID No. 39) (protein, listed as Fusarium oxysporum) chain 1: KSFSHHAEAPQGWQVQKTAKVASNTQHVFSLALTMQNVDQLESKLLDLSSPDSANYGNWLSHDELTSTFSPSKEAVASVTKWLKSKGIKHYKVNGAFIDFAADVEKANTLLGGDYQYYTKDGQTKLRTLSYSIPDDVAGHVQFVDPSTNFGGTVAFNPVPHPSRTLQERKVSPSKSTVDASCQTSITPSCLKQMYNIGDYTPDAKSGSEIGFSSFLGQAAIYSDVFKFEELFGIPKQNYTTILINNGTDDQNTAHGNFGEANLDAENIVGIAHPLPFKQYITGGSPPFVPNIDQPTEKDNQNEPYVPFFRYLLGQKDLPAVISTSYGDEEDSVPREYATLTCNMIGLLGLRGISVIFSSGDIGVGSGCLAPDYKTVEFNAIFPATCPYLTSVGGTVDVTPEIAWEGSSGGFSKYFPRPSYQDKAIKKYMKTVSKETKKYYGPYTNWEGRGFPDVAGHSVAPDYEVIYNGKQARSGGTSAAAPVWAAIVGLLNDARFKAGKKSLGWLNPLIYKHGPKVLTDITGGYAIGCDGNNTQSGKPEPAGSGLVPGARWNATAGWDPTTGYGTPNFQKLKDLVLSL chain 2: CQTSITPSCLKQMYNIGDYTPDAKSGSEIGFSSFLGQAAIYSDVFKFEELFGIPKQNYTTILINNGTDDQNTAHGNFGEANLDAENIVGIAHPLPFKQYITGGSPPFVPNIDQPTEKDNQNEPYVPFFRYLLGQKDLPAVISTSYGDEEDSVPREYATLTCNMIGLLGLRGISVIFSSGDIGVGSGCLAPDYKTVEFNAIFPATCPYLTSVGGTVDVTPEIAWEGSSGGFSKYFPRPSYQDKAIKKYMKTVSKETKKYYGPYTNWEGRGFPDVAGHSVAPDYEVIYNGKQARSGGTSAAAPVWAAIVGLLNDARFKAGKKSLGWLNPLIYKHGPKVLTDITGGYAIGCDGNNTQSGKPEPAGSGLVPGARWNATAGWDPTTGYGTPNFQKLKDLVLS | – | 0.589 and 0.672 | 0.453 and 0.6 | 0.757 and 0.815 | 0.466 and 0.67 | about 64%
